Measured values published in article PMC3763555 (Nucleic Acids Research, 2013).

What was measured:
drRecR = target: T1, drRecR (Deinococcus radiodurans, UniProt Q9ZNA2 1-220); experiment: fluorescence anisotropy
T1 sequence: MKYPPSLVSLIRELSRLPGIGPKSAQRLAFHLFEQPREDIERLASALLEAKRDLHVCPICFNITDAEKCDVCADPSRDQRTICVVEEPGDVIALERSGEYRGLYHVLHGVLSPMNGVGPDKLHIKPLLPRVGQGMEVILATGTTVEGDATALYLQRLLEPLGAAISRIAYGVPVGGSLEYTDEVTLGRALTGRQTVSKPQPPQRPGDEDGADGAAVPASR

drRecO Q59E;drRecR = target: T2, drRecO Q59E;drRecR (Deinococcus radiodurans;Deinococcus …, UniProt Q9RW50;Q9ZNA2 1-244;1-220, Q59E|); experiment: fluorescence anisotropy
T2 sequence 1: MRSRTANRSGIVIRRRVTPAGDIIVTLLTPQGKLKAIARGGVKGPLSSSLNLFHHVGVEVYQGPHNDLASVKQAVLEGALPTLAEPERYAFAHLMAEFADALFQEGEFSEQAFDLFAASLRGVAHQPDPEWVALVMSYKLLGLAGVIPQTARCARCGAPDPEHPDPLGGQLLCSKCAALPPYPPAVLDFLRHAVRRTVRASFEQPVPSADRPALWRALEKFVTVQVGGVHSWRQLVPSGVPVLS
T2 sequence 2: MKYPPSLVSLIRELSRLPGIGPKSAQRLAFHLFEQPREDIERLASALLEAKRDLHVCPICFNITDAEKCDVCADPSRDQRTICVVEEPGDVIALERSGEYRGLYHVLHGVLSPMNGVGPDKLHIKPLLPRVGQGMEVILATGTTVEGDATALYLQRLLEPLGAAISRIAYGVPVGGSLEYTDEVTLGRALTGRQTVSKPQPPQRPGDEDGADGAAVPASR

drRecO;drRecR K23E/R27E = target: T3, drRecO;drRecR K23E/R27E (Deinococcus radiodurans;Deinococcus …, UniProt Q9RW50;Q9ZNA2 1-244;1-220, |K23E;R27E); experiment: fluorescence anisotropy
T3 sequence 1: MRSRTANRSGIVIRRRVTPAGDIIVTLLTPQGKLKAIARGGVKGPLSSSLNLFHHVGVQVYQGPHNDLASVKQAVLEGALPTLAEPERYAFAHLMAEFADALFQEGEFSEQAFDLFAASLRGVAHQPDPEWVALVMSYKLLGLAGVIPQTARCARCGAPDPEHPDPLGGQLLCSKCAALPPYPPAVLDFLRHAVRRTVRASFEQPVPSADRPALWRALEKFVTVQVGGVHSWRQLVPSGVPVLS
T3 sequence 2: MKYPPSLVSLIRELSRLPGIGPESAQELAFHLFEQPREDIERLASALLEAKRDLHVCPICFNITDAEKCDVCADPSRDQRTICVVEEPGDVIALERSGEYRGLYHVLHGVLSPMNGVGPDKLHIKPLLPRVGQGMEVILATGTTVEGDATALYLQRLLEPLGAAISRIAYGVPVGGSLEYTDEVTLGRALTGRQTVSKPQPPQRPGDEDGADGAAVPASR

[1] = target: T4, Deinococcus radiodurans RecO, N-terminal hexa-histidine tag (Deinococcus radiodurans, UniProt Q9RW50 1-244); experiment: crystal structure
T4 sequence (looked up): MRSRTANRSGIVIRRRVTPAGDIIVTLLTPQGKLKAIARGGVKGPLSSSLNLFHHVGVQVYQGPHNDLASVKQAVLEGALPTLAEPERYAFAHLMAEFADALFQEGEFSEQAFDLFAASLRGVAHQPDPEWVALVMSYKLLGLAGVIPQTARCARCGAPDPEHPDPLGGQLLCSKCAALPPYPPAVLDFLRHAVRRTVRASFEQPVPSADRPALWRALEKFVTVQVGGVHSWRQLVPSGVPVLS

crystal structure = target: the molecule itself; experiment: crystal structure
SAXS = target: the molecule itself; experiment: SAXS
[2] = target: T5, Deinococcus radiodurans RecO, C-terminal hexa-histidine tag (Deinococcus radiodurans, UniProt Q9RW50 1-244); experiment: SAXS
T5 sequence (looked up): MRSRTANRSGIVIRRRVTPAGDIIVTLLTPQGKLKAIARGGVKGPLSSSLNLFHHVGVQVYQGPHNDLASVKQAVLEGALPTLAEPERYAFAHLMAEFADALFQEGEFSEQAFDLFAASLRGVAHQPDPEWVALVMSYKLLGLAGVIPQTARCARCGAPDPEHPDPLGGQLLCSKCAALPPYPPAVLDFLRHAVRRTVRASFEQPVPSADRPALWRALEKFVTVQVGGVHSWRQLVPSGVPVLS

drRecO = target: T6, drRecO (Deinococcus radiodurans, UniProt Q9RW50 1-244); experiment: fluorescence anisotropy
T6 sequence: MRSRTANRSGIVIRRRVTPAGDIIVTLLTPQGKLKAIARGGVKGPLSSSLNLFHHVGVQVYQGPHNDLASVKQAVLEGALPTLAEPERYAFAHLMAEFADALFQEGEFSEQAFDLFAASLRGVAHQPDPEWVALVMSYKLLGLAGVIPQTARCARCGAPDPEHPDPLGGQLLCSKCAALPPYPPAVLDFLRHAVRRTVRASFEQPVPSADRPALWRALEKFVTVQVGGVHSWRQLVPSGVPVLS

drRecO K43E/K72E;drRecR = target: T7, drRecO K43E/K72E;drRecR (Deinococcus radiodurans;Deinococcus …, UniProt Q9RW50;Q9ZNA2 1-244;1-220, K43E;K72E|); experiment: fluorescence anisotropy
T7 sequence 1: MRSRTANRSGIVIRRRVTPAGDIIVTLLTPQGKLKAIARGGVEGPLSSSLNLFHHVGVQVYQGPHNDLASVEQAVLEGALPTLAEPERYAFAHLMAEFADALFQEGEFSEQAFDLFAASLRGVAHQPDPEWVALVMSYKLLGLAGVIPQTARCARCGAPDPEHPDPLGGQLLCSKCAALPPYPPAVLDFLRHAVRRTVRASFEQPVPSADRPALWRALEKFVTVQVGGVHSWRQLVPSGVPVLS
T7 sequence 2: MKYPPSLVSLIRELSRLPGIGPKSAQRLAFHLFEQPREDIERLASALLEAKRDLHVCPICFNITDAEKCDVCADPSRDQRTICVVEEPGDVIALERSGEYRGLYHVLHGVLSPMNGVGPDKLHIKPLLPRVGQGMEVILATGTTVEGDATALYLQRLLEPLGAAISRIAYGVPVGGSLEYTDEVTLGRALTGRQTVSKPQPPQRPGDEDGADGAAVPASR

drRecO K72E/Q73E;drRecR = target: T8, drRecO K72E/Q73E;drRecR (Deinococcus radiodurans;Deinococcus …, UniProt Q9RW50;Q9ZNA2 1-244;1-220, K72E;Q73E|); experiment: fluorescence anisotropy
T8 sequence 1: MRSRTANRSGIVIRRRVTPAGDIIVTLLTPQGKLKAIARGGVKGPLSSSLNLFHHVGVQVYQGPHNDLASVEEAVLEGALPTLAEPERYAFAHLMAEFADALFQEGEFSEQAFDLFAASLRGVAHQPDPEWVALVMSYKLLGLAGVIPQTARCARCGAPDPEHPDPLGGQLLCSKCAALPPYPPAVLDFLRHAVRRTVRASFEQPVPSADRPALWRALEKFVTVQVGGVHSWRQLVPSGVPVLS
T8 sequence 2: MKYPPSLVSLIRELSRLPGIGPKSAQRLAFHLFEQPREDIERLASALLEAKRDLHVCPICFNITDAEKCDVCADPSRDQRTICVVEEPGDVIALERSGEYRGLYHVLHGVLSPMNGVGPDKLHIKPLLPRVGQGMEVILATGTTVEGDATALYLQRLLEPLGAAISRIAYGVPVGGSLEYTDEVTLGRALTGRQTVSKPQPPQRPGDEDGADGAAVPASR

B1: 50mer dsDNA (dsDNA)
DNA 1: GACTACGTACTGTTACGGCTCCATCTCTACCGCAATCAGGCCAGATCTGC
DNA 2: GCAGATCTGGCCTGATTGCGGTAGAGATGGAGCCGTAACAGTACGTAGTC
drRecR
  binding result: no binding
drRecO Q59E;drRecR
  binding result: no binding
drRecO;drRecR K23E/R27E
  binding result: no binding

B2: Deinococcus radiodurans RecR K23A/R27A double mutant (natural protein, UniProt Q9ZNA2 1-220, looked up)
chain: MKYPPSLVSLIRELSRLPGIGPASAQALAFHLFEQPREDIERLASALLEAKRDLHVCPICFNITDAEKCDVCADPSRDQRTICVVEEPGDVIALERSGEYRGLYHVLHGVLSPMNGVGPDKLHIKPLLPRVGQGMEVILATGTTVEGDATALYLQRLLEPLGAAISRIAYGVPVGGSLEYTDEVTLGRALTGRQTVSKPQPPQRPGDEDGADGAAVPASR
[1]
  binding result: binds
Crystal structure
  stoichiometry N: 4

B3: Deinococcus radiodurans RecR, full length, without tag (natural protein, UniProt Q9ZNA2 1-220, looked up)
chain: MKYPPSLVSLIRELSRLPGIGPKSAQRLAFHLFEQPREDIERLASALLEAKRDLHVCPICFNITDAEKCDVCADPSRDQRTICVVEEPGDVIALERSGEYRGLYHVLHGVLSPMNGVGPDKLHIKPLLPRVGQGMEVILATGTTVEGDATALYLQRLLEPLGAAISRIAYGVPVGGSLEYTDEVTLGRALTGRQTVSKPQPPQRPGDEDGADGAAVPASR
SAXS
  stoichiometry N: 2

B4: Deinococcus radiodurans RecR, full length, C-terminal hexa-histidine tag (natural protein, UniProt Q9ZNA2 1-220, looked up)
chain: MKYPPSLVSLIRELSRLPGIGPKSAQRLAFHLFEQPREDIERLASALLEAKRDLHVCPICFNITDAEKCDVCADPSRDQRTICVVEEPGDVIALERSGEYRGLYHVLHGVLSPMNGVGPDKLHIKPLLPRVGQGMEVILATGTTVEGDATALYLQRLLEPLGAAISRIAYGVPVGGSLEYTDEVTLGRALTGRQTVSKPQPPQRPGDEDGADGAAVPASR
[2]
  binding result: binds

## TTTTTTTTTTTTTTTTTTTTTTTTTTTTTTTTTTTTTTTTTTTTTTTTTT (ssDNA) [50mer poly(dT) ssDNA]
drRecR
  binding result: no binding
drRecO Q59E;drRecR
  binding result: no binding
drRecO
  Kd: 8.7 µM
drRecO;drRecR K23E/R27E
  binding result: no binding
drRecO K43E/K72E;drRecR
  binding result: binds
drRecO K72E/Q73E;drRecR
  binding result: binds
